Data on one molecule can be found in paper doi:10.1101/2020.04.11.036434 (bioRxiv, 2020).

Test [1] concerns the target P-Rex2 (WT), recombinant full-length (UniProt Q70Z35 1-1606). Nature of the test: pull-down.
The target of test [2] is T1, P-Rex2 DEP2-IP4P (residues 472-1606) (UniProt Q70Z35 472-1606).
T1 sequence: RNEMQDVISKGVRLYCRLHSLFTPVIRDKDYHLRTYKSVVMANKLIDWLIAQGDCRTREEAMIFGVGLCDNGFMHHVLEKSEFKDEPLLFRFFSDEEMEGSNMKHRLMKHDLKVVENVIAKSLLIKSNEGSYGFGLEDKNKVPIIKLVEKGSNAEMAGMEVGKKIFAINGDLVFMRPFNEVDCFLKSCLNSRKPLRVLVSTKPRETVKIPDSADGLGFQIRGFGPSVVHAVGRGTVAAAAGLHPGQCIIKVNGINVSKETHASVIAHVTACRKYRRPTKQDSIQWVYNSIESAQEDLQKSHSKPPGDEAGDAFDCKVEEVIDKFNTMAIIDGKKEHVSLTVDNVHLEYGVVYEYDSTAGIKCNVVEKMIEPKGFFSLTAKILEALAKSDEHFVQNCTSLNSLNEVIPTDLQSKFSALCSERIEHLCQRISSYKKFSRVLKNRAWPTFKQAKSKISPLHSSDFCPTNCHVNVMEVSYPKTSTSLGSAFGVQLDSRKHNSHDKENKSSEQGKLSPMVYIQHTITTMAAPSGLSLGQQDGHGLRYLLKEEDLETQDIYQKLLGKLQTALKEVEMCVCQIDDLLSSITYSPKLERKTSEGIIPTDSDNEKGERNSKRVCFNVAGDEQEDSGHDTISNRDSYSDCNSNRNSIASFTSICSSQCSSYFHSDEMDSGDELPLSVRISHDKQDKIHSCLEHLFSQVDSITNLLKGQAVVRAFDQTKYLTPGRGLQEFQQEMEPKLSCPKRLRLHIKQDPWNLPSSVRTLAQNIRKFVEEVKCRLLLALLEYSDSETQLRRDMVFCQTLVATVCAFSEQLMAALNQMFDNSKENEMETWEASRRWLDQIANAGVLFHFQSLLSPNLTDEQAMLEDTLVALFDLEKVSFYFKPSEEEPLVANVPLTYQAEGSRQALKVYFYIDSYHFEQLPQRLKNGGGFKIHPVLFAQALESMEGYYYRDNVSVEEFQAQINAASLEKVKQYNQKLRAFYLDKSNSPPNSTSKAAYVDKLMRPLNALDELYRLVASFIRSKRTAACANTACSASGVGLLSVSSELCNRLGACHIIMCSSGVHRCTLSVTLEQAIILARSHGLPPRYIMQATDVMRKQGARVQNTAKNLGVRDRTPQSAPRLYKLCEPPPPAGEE
The test is described as follows: SPR.

B1: PTEN (WT), recombinant insect-cell purified (natural protein)
chain: not shown
For the molecule B1, the binding result in test [1] and in test [2] was “binds” each time.
